From article PMC10688784, “In vitro characterization of the phage lysis protein MS2-L” (Microbiome Research Reports, 2023) come the findings set out here.

Read-outs that look alike come from different tables or passages of the source. Some results are limits rather than exact numbers.

In test [1] the target is MS2-Lp23, MS2-L truncated of the first 22 amino acids, C-terminal StrepII-tag (MS2 phage). Kind of test: native MS; LILBID-MS; derivatives CF expressed in standard A19 S30 lysate with 60 µM DMPG nanodiscs, purified; 50 mM ammonium acetate pH 7.4; laser 10-20 mJ.
The target is the same in test [2]. Kind of test: native MS; LILBID-MS; derivatives CF expressed in standard A19 S30 lysate with 0.4% Brij78, purified; 50 mM ammonium acetate pH 7.4 with 0.02% Brij78; laser 10-20 mJ.
Test [3] addresses MS2-Lp29, MS2-L truncated of the first 28 amino acids, C-terminal StrepII-tag (MS2 phage). Kind of test: native MS; LILBID-MS; derivatives CF expressed in standard A19 S30 lysate with 60 µM DMPG nanodiscs, purified; 50 mM ammonium acetate pH 7.4; laser 10-20 mJ.
The target is the same in test [4]. The experiment in a line: native MS; LILBID-MS; derivatives CF expressed in standard A19 S30 lysate with 0.4% Brij78, purified; 50 mM ammonium acetate pH 7.4 with 0.02% Brij78; laser 10-20 mJ.
For test [5], the target named is MS2-Lp35, MS2-L truncated of the first 34 amino acids, C-terminal StrepII-tag (MS2 phage). Kind of test: native MS; LILBID-MS; derivatives CF expressed in standard A19 S30 lysate with 60 µM DMPG nanodiscs, purified; 50 mM ammonium acetate pH 7.4; laser 10-20 mJ.
Test [6] shares this target. The experiment in a line: native MS; LILBID-MS; derivatives CF expressed in standard A19 S30 lysate with 0.4% Brij78, purified; 50 mM ammonium acetate pH 7.4 with 0.02% Brij78; laser 10-20 mJ.
The target of test [7] is MS2-Lp26, MS2-L truncated of the first 25 amino acids, C-terminal StrepII-tag (MS2 phage). Kind of test: native MS; LILBID-MS; derivatives CF expressed in standard A19 S30 lysate with 60 µM DMPG nanodiscs, purified; 50 mM ammonium acetate pH 7.4; laser 10-20 mJ.
For test [8] the target is unchanged. The experiment in a line: native MS; LILBID-MS; derivatives CF expressed in standard A19 S30 lysate with 0.4% Brij78, purified; 50 mM ammonium acetate pH 7.4 with 0.02% Brij78; laser 10-20 mJ.
In test [9] the target is MS2-Lp32, MS2-L truncated of the first 31 amino acids, C-terminal StrepII-tag (MS2 phage). Kind of test: native MS; LILBID-MS; derivatives CF expressed in standard A19 S30 lysate with 60 µM DMPG nanodiscs, purified; 50 mM ammonium acetate pH 7.4; laser 10-20 mJ.
The target is the same in test [10]. The experiment in a line: native MS; LILBID-MS; derivatives CF expressed in standard A19 S30 lysate with 0.4% Brij78, purified; 50 mM ammonium acetate pH 7.4 with 0.02% Brij78; laser 10-20 mJ.
Test [11] concerns the target T1, chaperone DnaJ with C-terminal His6-tag (UniProt P08622 1-376).
T1 construct: Chaperone DnaJ; the dnaJ gene cloned into NdeI/XhoI of pET21a; source: E. coli T7 Express, purified (Ni-NTA); not shown: His6, C-terminal, kept
T1 sequence (looked up): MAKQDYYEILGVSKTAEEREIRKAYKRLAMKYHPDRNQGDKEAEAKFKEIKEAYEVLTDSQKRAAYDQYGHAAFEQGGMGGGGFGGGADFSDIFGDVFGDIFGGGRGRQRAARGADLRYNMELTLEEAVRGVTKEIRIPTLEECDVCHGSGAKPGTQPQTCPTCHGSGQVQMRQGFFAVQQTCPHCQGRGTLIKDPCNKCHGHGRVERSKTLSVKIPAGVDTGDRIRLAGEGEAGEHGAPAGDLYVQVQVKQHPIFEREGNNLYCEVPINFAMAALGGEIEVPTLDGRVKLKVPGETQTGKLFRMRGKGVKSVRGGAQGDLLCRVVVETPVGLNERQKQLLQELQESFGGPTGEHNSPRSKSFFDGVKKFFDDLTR
The experiment in a line: pull-down. The following applies: one partner purified.

Test [12] has as its target MS2-L, full-length phage lysis protein with C-terminal StrepII-tag (MS2 phage) (UniProt P03609). The experiment in a line: native MS; LILBID-MS; derivatives CF expressed in standard A19 S30 lysate with 60 µM DMPG nanodiscs, purified; 50 mM ammonium acetate pH 7.4; laser 10-20 mJ.
Test [13] shares this target. The test is described as above. This is another data set of the same source.

Turning to “MS2-Lp23, MS2-L truncated of the first 22 amino acids, C-terminal StrepII-tag (domain or fragment)”, the stoichiometry N was more than 10 monomers in test [1] and less than 4 monomers in test [2].
Consider “MS2-Lp29, MS2-L truncated of the first 28 amino acids, C-terminal StrepII-tag (domain or fragment)”, for which the values for the stoichiometry N in test [3] and in test [4] were more than 10 monomers and less than 4 monomers, respectively.
For “MS2-Lp35, MS2-L truncated of the first 34 amino acids, C-terminal StrepII-tag (domain or fragment)”, the results for the stoichiometry N in [5] and in test [6] were more than 10 monomers and less than 10 monomers, respectively.
As to “MS2-Lp26, MS2-L truncated of the first 25 amino acids, C-terminal StrepII-tag (domain or fragment)”, the stoichiometry N in test [7] is more than 10 monomers; in test [8], less than 4 monomers.
In the case of “MS2-Lp32, MS2-L truncated of the first 31 amino acids, C-terminal StrepII-tag (domain or fragment)”, the figures for the stoichiometry N in [9] and in [10] were more than 10 monomers and less than 4 monomers, respectively.

B1: MS2-L, full-length phage lysis protein with C-terminal StrepII-tag (natural protein, MS2 phage, UniProt P03609 1-75, looked up)
chain: MKTRFPQQSQQTPASTNRRRPFKHEDYPCRRQQRSSTLYVLIFLAIFLSKFTNQLLLSLLEAVIRTVTTLQQLLT
notes: Lysis protein L of bacteriophage MS2, 75 amino acids; codon exchange GAA (Glu) to AAA (Lys) at the first position after the start methionine; In nanodisc samples the peptide sits in MSP1E3D1/DMPG nanodiscs; also called full-length MS2-L; full-length toxin MS2-L; source: also unpurified in the reaction mix; not shown: StrepII, C-terminal, kept
Regarding B1, the binding result in test [11] is given as “binds”. Also, the values for the stoichiometry N in test [12] and in [13] were more than 10 monomers and less than 12 monomers, respectively.

The stoichiometry N is the number of molecules, sites or subunits per partner or assembly.
